Literature values, collected in patent US8618048B2, “Insulin analogues of prolonged activity” (Instytut Biotechnologii I Antybiotyków, priority 2008, dated 2013).

Conditions: background statement

In the case of “unmodified natural insulin: unmodified natural insulin”, the isoelectric point is listed as 5.4.
